This experiment has as its target T1, LTα1β2 (human, UniProt P01374).
T1 chain 1: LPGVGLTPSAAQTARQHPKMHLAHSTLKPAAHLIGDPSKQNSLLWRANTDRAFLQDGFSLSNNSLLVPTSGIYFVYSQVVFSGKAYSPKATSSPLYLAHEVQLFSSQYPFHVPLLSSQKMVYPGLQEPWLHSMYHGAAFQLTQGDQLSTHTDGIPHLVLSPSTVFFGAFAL
T1 chain 2: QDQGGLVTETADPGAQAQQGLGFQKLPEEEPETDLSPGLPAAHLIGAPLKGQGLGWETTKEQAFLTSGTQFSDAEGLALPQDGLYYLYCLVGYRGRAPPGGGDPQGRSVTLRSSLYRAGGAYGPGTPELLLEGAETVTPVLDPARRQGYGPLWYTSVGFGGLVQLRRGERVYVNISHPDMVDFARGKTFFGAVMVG
As to the kind of experiment: ELISA.

B1: TNFRII.Fc (protein)
chain: LPAQVAFTPYAPEPGSTCRLREYYDQTAQMCCSKCSPGQHAKVFCTKTSDTVCDSCEDSTYTQLWNWVPECLSCGSRCSSDQVETQACTREQNRICTCRPGWYCALSKQEGCRLCAPLRKCRPGFGVARPGTETSDVVCKPCAPGTFSNTTSSTDICRPHQICNVVAIPGNASMDAVCTSTSPTRSMAPGAVHLPQPVSTRSQHTQPTPEPSTAPSTSFLLPMGPSPPAEGSTGD
With B1, the binding result was “no binding”.

Source of the values: patent US8541552.
